Where two headings read alike, the source gives them in different places. Values belong to the molecule of their own block, whether it stands above or below them. Positions of bridges follow the written chain, without caps; N, C: chain ends. Non-standard residues stand in square brackets, D forms with d. Residues, ends and D or L forms follow the SMILES beside them. No end group written: not given here. Bip = N[C@@H](Cc1ccc(-c2ccccc2)cc1)C(=O)O; Nle(6-Ph) = N[C@@H](CCCCc1ccccc1)C(=O)O; Met(O2) = CS(=O)(=O)CC[C@H](N)C(=O)O; Arg(Me) = CNC(=N)NCCC[C@H](N)C(=O)O; NMeF = CN[C@@H](Cc1ccccc1)C(=O)O; hArg = N=C(N)NCCCC[C@H](N)C(=O)O; Ahp(2) = CCCCC[C@H](N)C(=O)O
Legend:
His-tagged CD38 [1] = target: His-tagged CD38 (Homo sapiens, UniProt P28907); test: SPR assay (Biacore S200, Sensor Chip NTA, single-cycle kinetics) of SEQ ID NO.1 variants against His-tagged CD38; assay type: binding; settings: for Kd: SPR Biacore S200, His-tagged CD38, calculated from ka and kd; for kon / koff: SPR Biacore S200, NTA chip, His-tagged CD38; for kon: read-out: Ka (association rate constant); for koff: read-out: Kd (dissociation rate constant)
Method: SPR assay was performed using Biacore S200 (Cytiva: Former GE Healthcare).
After the equilibration of Series S Sensor Chip NTA (produced by Cytiva: Former GE Healthcare) with Running Buffer (10 mM HEPES pH7.4, 150 mM NaCl, 0.05% Tween 20), followed by injection of 350 mM EDTA at a flow rate of 10 L/min for 60 seconds and […] NiCl2 at a flow rate of 10 L/min for 60 seconds, then 3 mM EDTA at a flow rate of 10 L/min for 120 seconds, sequently, to wash the sensor chip.
(§1) EDC/NHS mixture was injected at a flow rate of […] for 7 minutes to thereby activate the functional groups on sensor chip. His-tagged CD38 in Running Buffer (10 mM HEPES pH7.4, 150 mM NaCl, 0.05% Tween 20) was injected immobilized to at a flow rate of […]. For 7 minutes to immobilize the CD38 on the substrate surfaces of the sensor chip. Then Ethanolamine was injected at a flow rate of […] for 7 minutes.
(§2) 1.0 M Ethanolamine(aq.) was injected at a flow rate of 10 L/min for 420 seconds for capping. 10 mM peptides (which were synthesised described above) in DMSO were diluted to obtain 10 uM with Running Buffer, and prepared 100 nM, 50 nM, 25 nM, 10 nM, 5 nM of each peptide's solutions (Peptide Samples).
(§3) Using these Peptide Samples, kinetics of peptides against His-tagged CD38 was measured. The method adopted for sample measurement was a single-cycle kinetics method. The analysis was conducted using the evaluation software 1.1 provided with Biacore S200. A DMSO correction curve obtained by solvent correction measurements was applied for the analysis. Kinetics fitting was done on the difference data obtained by subtracting the baseline data from sample measurement data.
KD values were calculated based on the association rate constant (ka) and dissociation rate constant (kd).

[2] = target: T1, Recombinant human CD38 protein (R&D Systems) (human, UniProt P28907 43-300); test: ELISA
[3] = target: T1, Recombinant human CD38 protein (R&D …); test: ELISA; remark: listed apart in the source
His-tagged CD38 [4] = target: T2, His-tagged CD38 (human, UniProt P28907 43-300, limits assumed); test: SPR (Biacore S200), His-tagged CD38 immobilised, single-cycle kinetics
T2 construct: The order of CD38 and tag is not known; not shown: His tag
Method: as §1, §2, §3

Molecule: {CH2CO}-AA[Ahp(2)]YHDGVL[Bip][Ahp(2)]DC (thioether N-13) [I-1 analogue with Ala at position 2 (A A Ahp Y H D G V L Bph Ahp D C)]
Binding Assay (larger values indicate stronger binding) [3]: 0.6

Molecule: {CH2CO}-AR[Ahp(2)]YHDAVL[Bip][Ahp(2)]DC (thioether N-13) [I-1 analogue with Ala at position 7 (A R Ahp Y H D A V L Bpb Ahp D C)]
Binding Assay (larger values indicate stronger binding) [3]: 1.49

Molecule: {CH2CO}-AR[Ahp(2)]YHDGAL[Bip][Ahp(2)]DC (thioether N-13) [I-1 analogue with Ala at position 8 (A R Ahp Y H D G A L Bph Ahp D C)]
Binding Assay (larger values indicate stronger binding) [3]: 0.3

Molecule: {CH2CO}-AR[Ahp(2)]YHAGVL[Bip][Ahp(2)]DC (thioether N-13) [I-1 analogue with Ala at position 6 (A R Ahp Y H A G V L Bph Ahp D C)]
Binding Assay (larger values indicate stronger binding) [3]: 0.93

Molecule: {CH2CO}-AR[Ahp(2)]YHDGVA[Bip][Ahp(2)]DC (thioether N-13) [I-1 analogue with Ala at position 9 (A R Ahp Y H D G V A Bph Ahp D C)]
Binding Assay (larger values indicate stronger binding) [3]: 0.08

Molecule: {CH2CO}-AR[Ahp(2)]YADGVL[Bip][Ahp(2)]DC (thioether N-13) [I-1 analogue with Ala at position 5 (A R Ahp Y A D G V L Bpb Ahp D C)]
Binding Assay (larger values indicate stronger binding) [3]: 0.28

Molecule: {CH2CO}-AR[Ahp(2)]AHDGVL[Bip][Ahp(2)]DC (thioether N-13) [I-1 analogue with Ala at position 4 (A R Ahp A H D G V L Bph Ahp D C)]
Binding Assay (larger values indicate stronger binding) [3]: 0.11

B1: Circular peptide having amino acid sequence represented by SEQ ID NO.13 (peptide)
peptide: {CH2CO}-AR[Ahp(2)]YHDQV[Met(O2)][Bip][Ahp(2)]DC
modifications: thioether N-13; not fully specified; also: circular peptide, closure not given here
Kd (His-tagged CD38 [4]): 22.2 nM

Molecule: {CH2CO}-AR[Ahp(2)]YHDGVL[Bip]ADC (thioether N-13) [I-1 analogue with Ala at position 11 (A R Ahp Y H D G V L Bph A D C)]
Binding Assay (larger values indicate stronger binding) [3]: 0.2

B2: Circular peptide having amino acid sequence represented by SEQ ID NO.24 (peptide)
peptide: ARXYHDEVLXXDC
modifications: not fully specified; Ahp at 3; Bph at 10; Ado ((S)-2-aminoundecanoic acid) at 11; circular peptide
Kd (His-tagged CD38 [4]): 3.53 nM

Further lines, results first:

Kd (His-tagged CD38 [1]): 3.1 nM
kon (His-tagged CD38 [1]): 350000 M⁻¹ s⁻¹
koff (His-tagged CD38 [1]): 0.0011 s⁻¹
Molecule: CCCCC[C@@H]1NC(=O)[C@H](CCCNC(=N)NC)NC(=O)[C@H](C)NC(=O)CSC[C@@H](C(N)=O)NC(=O)[C@H](CC(=O)O)NC(=O)[C@H](CCCCc2ccccc2)NC(=O)[C@H](Cc2ccc(-c3ccccc3)cc2)NC(=O)[C@H](CC(C)C)NC(=O)[C@H](C(C)C)NC(=O)[C@H](CCC(=O)O)NC(=O)[C@H](CC(=O)O)NC(=O)[C@H](Cc2c[nH]cn2)NC(=O)[C@H](Cc2ccc(O)cc2)NC1=O [compound 30] ({CH2CO}-A[Arg(Me)][Ahp(2)]YHDEVL[Bip][Nle(6-Ph)]DC-NH2; thioether N-13)

Kd (His-tagged CD38 [1]): 17.3 nM
kon (His-tagged CD38 [1]): 870000 M⁻¹ s⁻¹
koff (His-tagged CD38 [1]): 0.015 s⁻¹
Molecule: CCCCC[C@@H]1NC(=O)[C@H](CCCNC(=N)N)NC(=O)[C@H](C)NC(=O)CSC[C@@H](C(N)=O)NC(=O)[C@H](CC(=O)O)NC(=O)[C@H](CCCCC)NC(=O)[C@H](Cc2ccc(-c3ccccc3)cc2)NC(=O)[C@H](CCS(C)(=O)=O)NC(=O)[C@H](C(C)C)NC(=O)[C@H](CCCCNC(=N)N)NC(=O)[C@H](CC(=O)O)NC(=O)[C@H](Cc2c[nH]cn2)NC(=O)[C@H](Cc2ccc(O)cc2)NC1=O [compound 16] ({CH2CO}-AR[Ahp(2)]YHD[hArg]V[Met(O2)][Bip][Ahp(2)]DC-NH2; thioether N-13)

kon (His-tagged CD38 [1]): 1.6e+06 M⁻¹ s⁻¹
koff (His-tagged CD38 [1]): 0.0019 s⁻¹
Molecule: CCCCC[C@@H]1NC(=O)[C@H](CCCNC(=N)N)NC(=O)[C@H](C)NC(=O)CSC[C@@H](C(N)=O)NC(=O)[C@H](CC(=O)O)NC(=O)[C@H](CCCCC)NC(=O)[C@H](Cc2ccc(-c3ccccc3)cc2)NC(=O)[C@H](CC(C)C)NC(=O)[C@H](C(C)C)NC(=O)[C@H](CCCNC(=N)N)NC(=O)[C@H](CC(=O)O)NC(=O)[C@H](Cc2c[nH]cn2)NC(=O)[C@H](Cc2ccc(O)cc2)NC1=O [compound 11] ({CH2CO}-AR[Ahp(2)]YHDRVL[Bip][Ahp(2)]DC-NH2; thioether N-13)

Binding Assay (larger values indicate stronger binding) [2]: 0.41
Molecule: {CH2CO}-ALH[NMeF]VLP[Bip]VWAC (thioether N-12) [I-2 analogue with Ala at position 11 (A L H MeF V L P Bph V W A C)]

Binding Assay (larger values indicate stronger binding) [3]: 1.79
Molecule: {CH2CO}-AR[Ahp(2)]YHDGVL[Bip][Ahp(2)]AC (thioether N-13) [I-1 analogue with Ala at position 12 (A R Ahp Y H D G V L Bph Ahp A C)]

Binding Assay (larger values indicate stronger binding) [2]: 0.09
Molecule: {CH2CO}-ALH[NMeF]VLPAVWVC (thioether N-12; also: structure as I-2) [I-2 analogue with Ala at position 8 (A L H MeF V L P A V W V C)]

Binding Assay (larger values indicate stronger binding) [2]: 0.84
Molecule: {CH2CO}-AAH[NMeF]VLP[Bip]VWVC (thioether N-12) [I-2 analogue with Ala at position 2 (A A H MeF V L P Bph V W V C)]
